Data taken from US20110020273A1 (published 2011).

Target: T1, CD20 (human, UniProt P11836 1-297)
T1 sequence (looked up): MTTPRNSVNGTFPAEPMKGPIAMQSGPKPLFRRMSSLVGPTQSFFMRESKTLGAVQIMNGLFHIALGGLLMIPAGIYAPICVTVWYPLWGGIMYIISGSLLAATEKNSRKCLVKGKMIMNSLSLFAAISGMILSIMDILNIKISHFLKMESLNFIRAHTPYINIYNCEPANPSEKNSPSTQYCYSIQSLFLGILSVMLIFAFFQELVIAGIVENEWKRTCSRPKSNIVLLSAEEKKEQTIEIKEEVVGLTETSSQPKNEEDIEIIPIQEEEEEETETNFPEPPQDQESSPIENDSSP
Assay: cell-based or functional assay

EC50, in vitro proliferation of Jeko-1 cells: 1.5 nM
B1: veltuzumab (antibody, V domains shown)
VH: QVQLQQSGAEVKKPGSSVKVSCKASGYTFTSYNMHWVKQAPGQGLEWIGAIYPGMGDTSYNQKFKGKATLTADESTNTAYMELSSLRSEDTAFYYCARSTYYGGDWYFDVWGQGTTVTVSS
VL: DIQLTQSPSSLSASVGDRVTMTCRASSSVSYIHWFQQKPGKAPKPWIYATSNLASGVPVRFSGSGSGTDYTFTISSLQPEDIATYYCQQWTSNPPTFGGGTKLEIK
